Experimental data as given in USRE48267E1, “Variants of C-type natriuretic peptide” (priority 2009, dated 2020).
Changes are numbered by the printed parent chain. Names may count otherwise. Bridges are numbered along the chain shown (N, C = ends). Where no end group is shown, it is not given here. The star is where a group is joined. Heptanoyl = CCCCCCC(=O)*

B1: SPKMVQGSG-CNP17-KVLRRH (BNP tails) (peptide)
peptide: SPKMVQGSGCFGLKLDRIGSMSGLGCKVLRRH
modifications: disulfide 10-26 (inferred)
B2: GANSS-CNP22, K4R (peptide)
peptide: GANSSGLSRGCFGLKLDRIGSMSGLGC
B3: Heptanoic acid (N-term.)-CNP22, G1E (peptide)
peptide: Heptanoyl-ELSKGCFGLKLDRIGSMSGLGC
modifications: ends and bridges not checked
B4: GAHHPHEHDTHGANQQ-CNP22 (HRGP fragment) (peptide)
peptide: GAHHPHEHDTHGANQQGLSKGCFGLKLDRIGSMSGLGC
B5: AAWARLLQEHPNA-CNP22 (peptide)
peptide: AAWARLLQEHPNAGLSKGCFGLKLDRIGSMSGLGC
modifications: ends and bridges not checked; cysteine pairing not given here
B6: GQTHSSGTQSGANQQ-CNP22, K4R (fibrinogen) (peptide)
peptide: GQTHSSGTQSGANQQGLSRGCFGLKLDRIGSMSGLGC
B7: CNP22, K4R, K10R, N-term.--N-term. dimer/Bis-PEO5 (peptide)
peptide: GLSRGCFGLRLDRIGSMSGLGC
modifications: ends and bridges not checked; also: dimer joined N-terminus to N-terminus by Bis-PEO5
B8: GANRR-CNP22, K4R (peptide)
peptide: GANRRGLSRGCFGLKLDRIGSMSGLGC
B9: GQPREPQVYTLPPS-CNP22 (IgG1(Fc) fragment) (peptide)
peptide: GQPREPQVYTLPPSGLSKGCFGLKLDRIGSMSGLGC
B10: QEHPNARKYKGANKK-CNP22 (CNP37) (peptide)
peptide: QEHPNARKYKGANKKGLSKGCFGLKLDRIGSMSGLGC
modifications: ends and bridges not checked; cysteine pairing not given here
B11: DLRVDTKSRAAWAR-CNP22 (peptide)
peptide: DLRVDTKSRAAWARGLSKGCFGLKLDRIGSMSGLGC
B12: GHKSEVAHRFKGANKK-CNP22 (HSA-CNP27) (peptide)
peptide: GHKSEVAHRFKGANKKGLSKGCFGLKLDRIGSMSGLGC
B13: GANPR-CNP22, K4R (peptide)
peptide: GANPRGLSRGCFGLKLDRIGSMSGLGC
B14: CNP22, K4R, K10R, N-term.--N-term. dimer/disuccinimidyl glutarate (peptide)
peptide: GLSRGCFGLRLDRIGSMSGLGC
modifications: ends and bridges not checked; also: dimer joined N-terminus to N-terminus by disuccinimidyl glutarate
B15: GERAFKAWAVARLSQ-CNP22 (HSA fragment) (peptide)
peptide: GERAFKAWAVARLSQGLSKGCFGLKLDRIGSMSGLGC
B16: ER-CNP22, K4R (peptide)
peptide: ERGLSRGCFGLKLDRIGSMSGLGC
B17: PGHKSEVAHRFKGANKK-CNP22 (Pro-HSA-CNP27) (peptide)
peptide: PGHKSEVAHRFKGANKKGLSKGCFGLKLDRIGSMSGLGC
B18: GANQQ-CNP22, K4R (peptide)
peptide: GANQQGLSRGCFGLKLDRIGSMSGLGC
B19: GSTGQWHSESGANQQ-CNP22, K4R (fibrinogen) (peptide)
peptide: GSTGQWHSESGANQQGLSRGCFGLKLDRIGSMSGLGC
B20: AAWARLLQEHPNAR-CNP22 (peptide)
peptide: AAWARLLQEHPNARGLSKGCFGLKLDRIGSMSGLGC
modifications: ends and bridges not checked; cysteine pairing not given here
B21: GVPQVSTSTGANQQ-CNP22, K4R (HSA fragment) (peptide)
peptide: GVPQVSTSTGANQQGLSRGCFGLKLDRIGSMSGLGC
B22: GQEHPNARKYKGANPK-CNP22 (modified CNP37) (peptide)
peptide: GQEHPNARKYKGANPKGLSKGCFGLKLDRIGSMSGLGC
modifications: ends and bridges not checked; cysteine pairing not given here
B23: GQEHPNARKYKGANQQ-CNP22 (modified CNP37) (peptide)
peptide: B22 peptide with P15Q, K16Q
modifications: ends and bridges not checked; cysteine pairing not given here
B24: GQEHPNARKYKGANKK-CNP22 (Gly-CNP37) (peptide)
peptide: B22 peptide with P15K
modifications: ends and bridges not checked; cysteine pairing not given here
B25: GQEHPNARKYKGANQK-CNP22 (modified CNP37) (peptide)
peptide: B22 peptide with P15Q
modifications: ends and bridges not checked; cysteine pairing not given here
B26: R-CNP22, K4R (peptide)
peptide: RGLSRGCFGLKLDRIGSMSGLGC
B27: PGQEHPNARKYKGANKK-CNP22 (Pro-Gly-CNP37) (peptide)
peptide: PGQEHPNARKYKGANKKGLSKGCFGLKLDRIGSMSGLGC
modifications: ends and bridges not checked; cysteine pairing not given here
B28: GQPREPQVYTGANQQ-CNP22, K4R (IgG1(Fc) fragment) (peptide)
peptide: GQPREPQVYTGANQQGLSRGCFGLKLDRIGSMSGLGC
B29: GHHSHEQHPHGANQQ-CNP22 (HRGP fragment) (peptide)
peptide: GHHSHEQHPHGANQQGLSKGCFGLKLDRIGSMSGLGC

target: T1, NPR-B (natriuretic peptide receptor B), murine, expressed endogenously on NIH3T3 cells (murine, UniProt Q6VVW5 17-1047); test: cell-based or functional assay
T1 sequence (looked up): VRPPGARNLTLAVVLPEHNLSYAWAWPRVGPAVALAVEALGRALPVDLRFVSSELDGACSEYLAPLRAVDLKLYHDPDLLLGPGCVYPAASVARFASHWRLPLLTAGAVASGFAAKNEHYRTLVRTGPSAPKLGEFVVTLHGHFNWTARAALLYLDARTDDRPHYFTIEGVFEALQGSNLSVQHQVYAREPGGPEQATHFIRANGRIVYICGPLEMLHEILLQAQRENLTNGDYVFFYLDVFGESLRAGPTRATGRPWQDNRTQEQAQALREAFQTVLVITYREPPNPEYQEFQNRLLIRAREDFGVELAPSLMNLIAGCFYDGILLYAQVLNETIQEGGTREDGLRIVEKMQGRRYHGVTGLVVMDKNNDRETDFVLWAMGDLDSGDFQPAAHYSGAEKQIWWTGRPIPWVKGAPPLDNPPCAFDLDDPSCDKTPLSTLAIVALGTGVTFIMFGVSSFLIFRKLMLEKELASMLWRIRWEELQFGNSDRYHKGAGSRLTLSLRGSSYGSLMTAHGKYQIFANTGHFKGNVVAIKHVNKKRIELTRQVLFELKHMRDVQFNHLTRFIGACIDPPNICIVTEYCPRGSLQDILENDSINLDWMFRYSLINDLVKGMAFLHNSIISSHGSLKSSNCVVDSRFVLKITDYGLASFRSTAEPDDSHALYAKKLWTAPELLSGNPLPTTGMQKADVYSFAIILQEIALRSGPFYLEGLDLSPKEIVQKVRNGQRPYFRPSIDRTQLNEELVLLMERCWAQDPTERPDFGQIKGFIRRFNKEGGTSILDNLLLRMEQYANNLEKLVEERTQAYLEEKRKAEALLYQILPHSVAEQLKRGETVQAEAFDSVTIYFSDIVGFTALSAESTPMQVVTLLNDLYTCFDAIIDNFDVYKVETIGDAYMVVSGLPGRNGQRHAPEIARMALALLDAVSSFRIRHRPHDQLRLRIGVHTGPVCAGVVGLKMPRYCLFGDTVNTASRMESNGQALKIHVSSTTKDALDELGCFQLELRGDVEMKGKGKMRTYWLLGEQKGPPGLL

Row | Binder | cGMP response rel. to 1 uM CNP22; 10 nM peptide, NIH3T3 cells | cGMP response rel. to 1 uM CNP22; 1 uM peptide, NIH3T3 cells
1 | B1 | 25 rel. to 1 uM CNP22 (100) | 102 rel. to 1 uM CNP22 (100)
2 | B2 | 27 rel. to 1 uM CNP22 (100) | 88 rel. to 1 uM CNP22 (100)
3 | B3 | 32 rel. to 1 uM CNP22 (100) | 84 rel. to 1 uM CNP22 (100)
4 | B4 | 14 rel. to 1 uM CNP22 (100) | 77 rel. to 1 uM CNP22 (100)
5 | B5 | 24 rel. to 1 uM CNP22 (100) | 76 rel. to 1 uM CNP22 (100)
6 | B6 | 12 rel. to 1 uM CNP22 (100) | 115 rel. to 1 uM CNP22 (100)
7 | B7 | 19 rel. to 1 uM CNP22 (100) | 41 rel. to 1 uM CNP22 (100)
8 | B8 | 59 rel. to 1 uM CNP22 (100) | 105 rel. to 1 uM CNP22 (100)
9 | B9 | 23 rel. to 1 uM CNP22 (100) | 72 rel. to 1 uM CNP22 (100)
10 | B10 | 43 rel. to 1 uM CNP22 (100) | 97 rel. to 1 uM CNP22 (100)
11 | B11 | 34 rel. to 1 uM CNP22 (100) | 101 rel. to 1 uM CNP22 (100)
12 | B12 | 51 rel. to 1 uM CNP22 (100) | 109 rel. to 1 uM CNP22 (100)
13 | B13 | 50 rel. to 1 uM CNP22 (100) | 105 rel. to 1 uM CNP22 (100)
14 | B14 | 19 rel. to 1 uM CNP22 (100) | 44 rel. to 1 uM CNP22 (100)
15 | B15 | 15 rel. to 1 uM CNP22 (100) | 87 rel. to 1 uM CNP22 (100)
16 | B16 | 38 rel. to 1 uM CNP22 (100) | 113 rel. to 1 uM CNP22 (100)
17 | B17 | 32 rel. to 1 uM CNP22 (100) | 107 rel. to 1 uM CNP22 (100)
18 | B18 | 44 rel. to 1 uM CNP22 (100) | 95 rel. to 1 uM CNP22 (100)
19 | B19 | 2 rel. to 1 uM CNP22 (100) | 33 rel. to 1 uM CNP22 (100)
20 | B20 | 36 rel. to 1 uM CNP22 (100) | 84 rel. to 1 uM CNP22 (100)
21 | B21 | 3 rel. to 1 uM CNP22 (100) | 35 rel. to 1 uM CNP22 (100)
22 | B22 | 19 rel. to 1 uM CNP22 (100) | 61 rel. to 1 uM CNP22 (100)
23 | B23 | 9 rel. to 1 uM CNP22 (100) | 57 rel. to 1 uM CNP22 (100)
24 | B24 | 50 rel. to 1 uM CNP22 (100) | 98 rel. to 1 uM CNP22 (100)
25 | B25 | 60 rel. to 1 uM CNP22 (100) | 121 rel. to 1 uM CNP22 (100)
26 | B26 | 54 rel. to 1 uM CNP22 (100) | 106 rel. to 1 uM CNP22 (100)
27 | B27 | 49 rel. to 1 uM CNP22 (100) | 103 rel. to 1 uM CNP22 (100)
28 | B28 | 2 rel. to 1 uM CNP22 (100) | 32 rel. to 1 uM CNP22 (100)
29 | B29 | 16 rel. to 1 uM CNP22 (100) | 95 rel. to 1 uM CNP22 (100)
